# Test results taken from publication PMC4982613.
# Tests used:
# Assay in all cases: EMSA
# [1] = target: NEIL1 TA S207A;S306A;S61A (human) (UniProt Q96FI4); conditions: tetrahydrofuran (abasic site analog) at position 14 of strand 1 (N), opposite C; EMSA: 10 pM 32P-DNA, 0-600 nM enzyme, 10% native PAGE, 2 h at 10 mA; binding buffer, salt, pH and temperature not stated; one-site specific binding fit (Prism …)
# [2] = target: NEIL1 DE S207E;S306E (human) (UniProt Q96FI4); conditions: tetrahydrofuran (abasic site analog) at position 14 of strand 1 (N), opposite C; EMSA: 10 pM 32P-DNA, 0-600 nM enzyme, 10% native PAGE, 2 h at 10 mA; binding buffer, salt, pH and temperature not stated; one-site specific binding fit (Prism …)
# Sequence of NEIL1 DE S207E;S306E (human) (Q96FI4 whole entry S207E/S306E): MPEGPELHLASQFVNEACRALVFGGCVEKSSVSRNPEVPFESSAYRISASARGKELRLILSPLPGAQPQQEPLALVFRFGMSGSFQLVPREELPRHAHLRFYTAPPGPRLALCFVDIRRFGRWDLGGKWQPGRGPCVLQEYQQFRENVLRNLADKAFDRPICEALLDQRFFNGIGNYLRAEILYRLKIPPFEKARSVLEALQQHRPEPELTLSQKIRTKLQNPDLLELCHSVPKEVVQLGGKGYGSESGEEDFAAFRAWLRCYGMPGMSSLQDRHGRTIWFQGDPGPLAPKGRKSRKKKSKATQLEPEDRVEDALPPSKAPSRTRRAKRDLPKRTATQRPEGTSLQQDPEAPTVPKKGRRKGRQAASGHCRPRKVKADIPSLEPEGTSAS
# [3] = target: NEIL1 S306A S306A (human) (UniProt Q96FI4); conditions: upper bands may lower Kd; tetrahydrofuran (abasic site analog) at position 14 of strand 1 (N), opposite C; EMSA: 10 pM 32P-DNA, 0-600 nM enzyme, 10% native PAGE, 2 h at 10 mA; binding buffer, salt, pH and temperature not stated; one-site specific binding fit (Prism …)
# Sequence of NEIL1 S306A S306A (human) (Q96FI4 whole entry S306A): as the sequence (Q96FI4 whole entry S207E/S306E) above, with E207S, E306A counted along it
# [4] = target: NEIL1 S306E S306E (human) (UniProt Q96FI4); conditions: tetrahydrofuran (abasic site analog) at position 14 of strand 1 (N), opposite C; EMSA: 10 pM 32P-DNA, 0-600 nM enzyme, 10% native PAGE, 2 h at 10 mA; binding buffer, salt, pH and temperature not stated; one-site specific binding fit (Prism …)
# Sequence of NEIL1 S306E S306E (human) (Q96FI4 whole entry S306E): as the sequence (Q96FI4 whole entry S207E/S306E) above, with E207S counted along it
# [5] = target: NEIL1 S207E S207E (human) (UniProt Q96FI4); conditions: tetrahydrofuran (abasic site analog) at position 14 of strand 1 (N), opposite C; EMSA: 10 pM 32P-DNA, 0-600 nM enzyme, 10% native PAGE, 2 h at 10 mA; binding buffer, salt, pH and temperature not stated; one-site specific binding fit (Prism …)
# Sequence of NEIL1 S207E S207E (human) (Q96FI4 whole entry S207E): as the sequence (Q96FI4 whole entry S207E/S306E) above, with E306S counted along it
# NEIL1 WT (human) = NEIL1 WT (human) (UniProt Q96FI4); conditions: tetrahydrofuran (abasic site analog) at position 14 of strand 1 (N), opposite C; EMSA: 10 pM 32P-DNA, 0-600 nM enzyme, 10% native PAGE, 2 h at 10 mA; binding buffer, salt, pH and temperature not stated; one-site specific binding fit (Prism …)
# Sequence of NEIL1 WT (human) (Q96FI4 whole entry): as the sequence (Q96FI4 whole entry S207E/S306E) above, with E207S, E306S counted along it
# [6] = target: NEIL1 TE S207E;S306E;S61E (human) (UniProt Q96FI4); conditions: upper bands may lower Kd; tetrahydrofuran (abasic site analog) at position 14 of strand 1 (N), opposite C; EMSA: 10 pM 32P-DNA, 0-600 nM enzyme, 10% native PAGE, 2 h at 10 mA; binding buffer, salt, pH and temperature not stated; one-site specific binding fit (Prism …)
# Sequence of NEIL1 TE S207E;S306E;S61E (human) (Q96FI4 whole entry S61E/S207E/S306E): as the sequence (Q96FI4 whole entry S207E/S306E) above, with S61E counted along it
# [7] = target: NEIL1 S207A S207A (human) (UniProt Q96FI4); conditions: multiple complexes (C1+C2+C3) quantified; tetrahydrofuran (abasic site analog) at position 14 of strand 1 (N), opposite C; EMSA: 10 pM 32P-DNA, 0-600 nM enzyme, 10% native PAGE, 2 h at 10 mA; binding buffer, salt, pH and temperature not stated; one-site specific binding fit (Prism …)
# Sequence of NEIL1 S207A S207A (human) (Q96FI4 whole entry S207A): as the sequence (Q96FI4 whole entry S207E/S306E) above, with E207A, E306S counted along it
# NEIL1 S61A S61A (human) = NEIL1 S61A S61A (human) (UniProt Q96FI4); conditions: tetrahydrofuran (abasic site analog) at position 14 of strand 1 (N), opposite C; EMSA: 10 pM 32P-DNA, 0-600 nM enzyme, 10% native PAGE, 2 h at 10 mA; binding buffer, salt, pH and temperature not stated; one-site specific binding fit (Prism …)
# Sequence of NEIL1 S61A S61A (human) (Q96FI4 whole entry S61A): as the sequence (Q96FI4 whole entry S207E/S306E) above, with S61A, E207S, E306S counted along it
# NEIL1 S61E S61E (human) = NEIL1 S61E S61E (human) (UniProt Q96FI4); conditions: tetrahydrofuran (abasic site analog) at position 14 of strand 1 (N), opposite C; EMSA: 10 pM 32P-DNA, 0-600 nM enzyme, 10% native PAGE, 2 h at 10 mA; binding buffer, salt, pH and temperature not stated; one-site specific binding fit (Prism …)
# Sequence of NEIL1 S61E S61E (human) (Q96FI4 whole entry S61E): as the sequence (Q96FI4 whole entry S207E/S306E) above, with S61E, E207S, E306S counted along it
# [8] = target: NEIL1 DA S207A;S306A (human) (UniProt Q96FI4); conditions: tetrahydrofuran (abasic site analog) at position 14 of strand 1 (N), opposite C; EMSA: 10 pM 32P-DNA, 0-600 nM enzyme, 10% native PAGE, 2 h at 10 mA; binding buffer, salt, pH and temperature not stated; one-site specific binding fit (Prism …)
# Sequence of NEIL1 DA S207A;S306A (human) (Q96FI4 whole entry S207A/S306A): as the sequence (Q96FI4 whole entry S207E/S306E) above, with E207A, E306A counted along it
# Sequence of NEIL1 TA S207A;S306A;S61A (human) (Q96FI4 whole entry S61A/S207A/S306A): as the sequence (Q96FI4 whole entry S207E/S306E) above, with S61A, E207A, E306A counted along it
sequence,measurement,setting,value
TGTCAATAGCAAGNGGAGAAGTCAATCGTGAGTCT / AGACTCACGATTGACTTCTCCCCTTGCTATTGACA [35-mer Furan:C duplex],Kd,[1],13.2 nM
same,Kd,[2],15 nM
same,Kd,[3],2.3 nM
same,Kd,[4],7.8 nM
same,Kd,[5],4.5 nM
same,Kd,NEIL1 WT (human),23 nM
same,Kd,[6],1.3 nM
same,Kd,[7],3.2 nM
same,Kd,NEIL1 S61A S61A (human),16.2 nM
same,Kd,NEIL1 S61E S61E (human),19.6 nM
same,Kd,[8],10.8 nM
